According to article PMC8103790:

Substrate: CCCCC/C=C\C/C=C\C/C=C\C/C=C\CCCC(=O)O
Assay: purified protein
Details: heme cyclooxygenase channel

B1: wild-type human COX-2 (huCOX-2) (Homo sapiens) (protein)
chain: ANPCCSHPCQNRGVCMSVGFDQYKCDCTRTGFYGENCSTPEFLTRIKLFLKPTPNTVHYILTHFKGFWNVVNNIPFLRNAIMSYVLTSRSHLIDSPPTYNADYGYKSWEAFSNLSYYTRALPPVPDDCPTPLGVKGKKQLPDSNEIVEKLLLRRKFIPDPQGSNMMFAFFAQHFTHQFFKTDHKRGPAFTNGLGHGVDLNHIYGETLARQRKLRLFKDGKMKYQIIDGEMYPPTVKDTQAEMIYPPQVPEHLRFAVGQEVFGLVPGLMMYATIWLREHNRVCDVLKQEHPEWGDEQLFQTSRLILIGETIKIVIEDYVQHLSGYHFKLKFDPELLFNKQFQYQNRIAAEFNTLYHWHPLLPDTFQIHDQKYNYQQFIYNNSILLEHGITQFVESFTRQIAGRVAGGRNVPPAVQKVSQASIDQSRQMKYQSFNEYRKRFMLKPYESFEELTGEKEMSAELEALYGDIDAVELYPALLVEKPRPDAIFGETMVEVGAPFSLKGLMGNVICSPAYWKPSTFGGEVGFQIINTASIQSLICNNVKGCPFTSFSVPDPELIKTVTINASSSRSGLDDINPTVLLKERSTEL
B1 showed a Km of 17.7 ± 1.9 µM.
